According to paper PMC8479633:

Key:
[1] = target: SMAD2 linker-MH2 construct, non-phosphorylated (S2LMH2); assay: SAXS with ensemble optimisation
[2] = target: phosphomimetic full-length SMAD2 (S2FLEEE) (UniProt Q15796); assay: SAXS with ensemble optimisation

Chain of phosphomimetic full-length SMAD2 (S2FLEEE) (from UniProt Q15796 1-467) (natural protein) (Q15796 whole entry): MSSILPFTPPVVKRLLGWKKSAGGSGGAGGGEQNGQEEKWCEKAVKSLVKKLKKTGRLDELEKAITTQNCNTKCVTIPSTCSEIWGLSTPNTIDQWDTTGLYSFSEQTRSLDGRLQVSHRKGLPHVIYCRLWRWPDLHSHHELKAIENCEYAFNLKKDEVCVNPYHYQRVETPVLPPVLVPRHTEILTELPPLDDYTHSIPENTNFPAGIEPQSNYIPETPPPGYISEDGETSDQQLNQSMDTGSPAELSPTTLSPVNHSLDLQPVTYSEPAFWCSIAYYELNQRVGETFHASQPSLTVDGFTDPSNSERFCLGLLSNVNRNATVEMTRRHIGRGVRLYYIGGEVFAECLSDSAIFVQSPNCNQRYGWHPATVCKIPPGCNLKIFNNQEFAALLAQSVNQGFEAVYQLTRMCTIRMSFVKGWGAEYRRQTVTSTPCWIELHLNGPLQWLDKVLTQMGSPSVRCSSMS
Chain of SMAD2 linker-MH2 construct, non-phosphorylated (S2LMH2) (domain or fragment) (Q15796 269-467): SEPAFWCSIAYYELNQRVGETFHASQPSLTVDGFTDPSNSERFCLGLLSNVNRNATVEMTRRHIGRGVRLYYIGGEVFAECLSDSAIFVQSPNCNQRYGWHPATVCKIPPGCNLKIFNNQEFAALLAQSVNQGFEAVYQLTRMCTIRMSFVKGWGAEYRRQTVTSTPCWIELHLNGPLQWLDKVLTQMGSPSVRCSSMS

Substance	percent of the population as dimer [1] [%]	percent of the population as dimer [2] [%]	percent of the population as trimer [2] [%]
SMAD2 linker-MH2 construct, non-phosphorylated (S2LMH2) (domain or fragment)	25	–	–
phosphomimetic full-length SMAD2 (S2FLEEE) (from UniProt Q15796 1-467) (natural protein)	–	36	44.8
